Measurements reported in publication PMC3472031.
Several values for one entry are separate records, joined by “and”; a condition that tells them apart may be missing. Equal values may be shown once.

B1: N-WASP GBD GBD, O00401 (protein)
chain: KRLTKADIGTPSNFQHIGHVGWDPNTGFDLNNLDPELKNLFDMCGISEAQLKDRETSKVIYDFIEKTGGVEAVKNELRR
B2: IRTKS SH3 SH3, Q9UHR4 (protein)
chain: LNMMKKQKVKTIFPHTAGSNKTLLSFAQGDVITLLIPEEKDGWLYGEHDVSKARGWFPSSYTKLLEENET

Tests used:
[1] = target: EspFU R475 R475 (fifth 47-residue repeat) (Escherichia coli O157:H7), P0DJ88; experiment: ITC
[2] = target: EspFU R2 20-residue peptide from second repeat (Escherichia coli O157:H7), P0DJ88; experiment: ITC

Binder	Kd [1]	Kd [2]
B1	40 nM and 70 nM	
B2		1100 nM
